The values below come from article PMC2289750 (The Journal of Cell Biology, 1992).

The assay has as its target T1, zyxin (chicken, UniProt Q04584 1-542, 125I (radioiodinated using Iodogen)).
T1 sequence (looked up): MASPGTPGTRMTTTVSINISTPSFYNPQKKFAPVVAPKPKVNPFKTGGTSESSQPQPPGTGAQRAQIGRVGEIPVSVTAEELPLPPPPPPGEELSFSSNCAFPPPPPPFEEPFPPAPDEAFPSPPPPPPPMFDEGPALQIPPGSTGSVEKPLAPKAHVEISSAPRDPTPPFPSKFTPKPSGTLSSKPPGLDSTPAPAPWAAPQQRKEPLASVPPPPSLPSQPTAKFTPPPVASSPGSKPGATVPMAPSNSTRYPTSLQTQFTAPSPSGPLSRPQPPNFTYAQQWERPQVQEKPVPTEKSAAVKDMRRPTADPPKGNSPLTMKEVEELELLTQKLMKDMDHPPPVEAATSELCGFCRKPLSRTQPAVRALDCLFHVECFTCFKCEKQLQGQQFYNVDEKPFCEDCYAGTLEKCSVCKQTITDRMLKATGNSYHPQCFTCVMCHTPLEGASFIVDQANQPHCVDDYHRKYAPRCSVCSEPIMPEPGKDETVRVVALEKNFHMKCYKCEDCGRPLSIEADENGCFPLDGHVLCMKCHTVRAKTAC
As to the kind of experiment: far-Western, overlay or dot blot.

B1: chicken Cysteine-Rich Protein (cCRP) (natural protein)
chain: MPNWGGGKKCGVCQKAVYFAEEVQCEGSSFHKSCFLCMVCKKNLDSTTVAVHGDEIYCKSCYGKKYGPKGYGYGMGAGTLSTDKGESLGIKYEEGQSHRPTNPNASRMAQKVGGSDGCPRCGQAVYAAEKVIGAGKSWHKSCFRCAKCGKSLESTTLADKDGEIYCKGCYAKNFGPKGFGFGQGAGALIHSQ
In the case of B1, the binding result was “binds”.
